Results taken from patent US20230212239A1, “INHIBITORS OF CBL AUTOINHIBITION AND RELATED METHODS” (THE HOSPITAL FOR SICK CHILDREN, priority 2020, published 2023).
Substitutions are numbered along the chain they refer to. “Also recorded” adds a separate entry of the source.

B1: Trx-His(6)-Δlinker-hSLAP2 (human SLAP2 29-261) (other)
chain: EAERSKATAVALGSFPAGGPAELSLRLGEPLTIVSEDGDWWTVLSEVSGREYNIPSVHVAKVSHGWLYEGLSREKAEELLLLPGNPGGAFLIRESQTRRGSYSLSVRLSRPASWDRIRHYRIHCLDNGWLYISPRLTFPSLQALVDHYSELADDICCLLKEPCVLQRAGPLPGKDIPLPVTVQRTPLNWKELDSSLLFSEAATGEESLLSEGLRESLSFYISLNDEAVSLDDA
notes: also called Trx-His-SLAP2; SLAP2 WT; not shown: N-terminal thioredoxin (Trx)-His(6)-TEV-site tag and linker of the modified pET32a (Δlinker version)
B2: pSLAP2: tyrosine phosphorylated SLAP2 expressed in TKB1 cells (protein, UniProt Q9H6Q3 2-261, looked up)
Src-like-adapter 2: GSLPSRRKSLPSPSLSSSVQGQGPVTMEAERSKATAVALGSFPAGGPAELSLRLGEPLTIVSEDGDWWTVLSEVSGREYNIPSVHVAKVSHGWLYEGLSREKAEELLLLPGNPGGAFLIRESQTRRGSYSLSVRLSRPASWDRIRHYRIHCLDNGWLYISPRLTFPSLQALVDHYSELADDICCLLKEPCVLQRAGPLPGKDIPLPVTVQRTPLNWKELDSSLLFSEAATGEESLLSEGLRESLSFYISLNDEAVSLDDA
modifications: tyrosine phosphorylated
notes: tyrosine phosphorylated SLAP2 expressed in TKB1 cells

Key:
Format in all cases: biochemical
[1] = target: T1, phosphorylated CBL (pCBL) (Homo sapiens, UniProt P22681); test: In vitro ubiquitination assay, anti-ubiquitin immunoblot, phosphorylated CBL; conditions: added to phosphorylated CBL
T1 construct: GST (N, cleaved yes); made in house
T1 sequence (P22681 2-436): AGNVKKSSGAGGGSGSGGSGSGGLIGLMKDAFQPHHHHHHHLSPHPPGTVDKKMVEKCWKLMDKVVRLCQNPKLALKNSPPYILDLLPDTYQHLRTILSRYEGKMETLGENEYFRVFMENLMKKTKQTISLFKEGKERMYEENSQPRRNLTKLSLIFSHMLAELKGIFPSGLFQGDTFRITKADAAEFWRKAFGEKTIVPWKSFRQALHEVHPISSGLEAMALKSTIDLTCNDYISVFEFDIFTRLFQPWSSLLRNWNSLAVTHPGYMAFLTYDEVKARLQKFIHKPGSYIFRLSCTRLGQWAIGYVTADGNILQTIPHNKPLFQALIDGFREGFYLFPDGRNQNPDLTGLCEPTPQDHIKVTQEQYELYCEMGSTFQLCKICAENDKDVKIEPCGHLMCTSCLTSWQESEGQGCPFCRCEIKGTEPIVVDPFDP
From the text: (§1) Given that binding of SLAP2 and the LHR-RING would be mutually exclusive (FIG. 8C), we reasoned that binding of SLAP2 to CBL could displace the LHR-RING, thereby promoting the catalytically competent conformation. To test this hypothesis, an in vitro ubiquitination assay in which E3 ligase activity is detected by a smear at high molecular weight on an anti-ubiquitin (Ub) immunoblot was employed. […] To further compare and quantify CBL ubiquitin ligase activity, a chemiluminescence based assay which measures the total amount of polyubiquitylated products formed in an in vitro reaction was used. In this assay, production of polyubiquitylated proteins increased upon addition of SLAP2 or pSLAP2 to CBL, compared to CBL alone (FIG. 9C and FIG. 10A).
(§2) In vitro ubiquitination reactions were prepared with 20 pmol of CBL or pCBL and 60 pmol of hSLAP2 or phosphorylated hSLAP2 (pSLAP2) for both WT and mutants. Reagents were thawed and reactions prepared on ice. […]

CBL TKBD-LHR-RING = target: T2, CBL TKBD-LHR-RING (Homo sapiens, UniProt P22681); test: Chemiluminescence based E3LITE assay of total polyubiquitylated products; conditions: added to CBL, compared to CBL alone
T2 construct: GST (N, cleaved yes); made in house; host or cells: E. coli BL-21
T2 sequence (P22681 2-436): T1 sequence (P22681 2-436)
From the text: as §1
(§3) Ubiquitination reactions were set up as above (25 µL total volume) in triplicate and diluted with reaction buffer after completion (1:40 for pCBL, 1:15 for all other reactions). […] Wells were washed four times with PBS-T and 25 µL of prepared Immobilon Western Chemiluminescent HRP Substrate (Millipore #P90719) added to each well immediately prior to the plate being read on a Synergy Neo2 Plate Reader (BioTek Instruments). […] Standard deviation of the reaction averages was calculated and used as a measure of error. Each reaction set was analyzed at least twice with fresh protein purifications.

CBL G306E = target: T3, CBL G306E (Homo sapiens, UniProt P22681, G306E); test: In vitro ubiquitination assays with CBL mutant G306E; conditions: CBL mutant that abolishes phospho-tyrosine binding
T3 construct: Residues 25-357 and 2-436 of CBL were cloned in frame into pGEX4T-1; GST (N, cleaved yes); made in house; host or cells: E. coli BL-21
T3 sequence (P22681 2-436 G306E): T1 sequence (P22681 2-436) with G305E
Method: Thus, we tested whether the ability of SLAP2 to promote CBL ubiquitination activity is influenced by canonical TKBD-phospho-tyrosine interactions.
as §2, §3

| Molecule | ubiquitination activity of active pCBL [1] | production of polyubiquitylated proteins / CBL ligase activity (CBL TKBD-LHR-RING) | CBL G306E ubiquitination activity (CBL G306E) |
| --- | --- | --- | --- |
| B1 | Neither addition of SLAP2 nor pSLAP2 to active pCBL appeared to further enhance or diminish ubiquitination activity | increased | – |
| B2 | Neither addition of SLAP2 nor pSLAP2 to active pCBL appeared to further enhance or diminish ubiquitination activity | increased; also recorded: stimulated CBL ligase activity to a greater extent than SLAP2 | stimulated CBL G306E ubiquitination activity |
